Data from a protein production outcome set (Wang et al. 2014).

Experiment: label from the status in PepcDB records
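Also: failed if final PepcDB status was selected cloned or expressed and not failed if soluble or beyond.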

Sequence: MRQDAEVIMKLTDADNAADGIFFPALEQNMMGAVLINENDEVMFFNPAAEKLWGYKREEVIGNNIDMLIPRDLRPAHPEYIRHNREGGKARVEGMSRELQLEKKDGSKIWTRFALSKVSAEGKVYYLALVRDASVEMAQKEQTRQLIIAVDHLDRPVIVLDPERHIVQCNRAFTEMFGYCISEASGMQPDTLLNIPEFPADNRIRLQQLLWKTARDQDEFLLLTRTGEKIWIKASISPVYDVLAHLQNLVMTFSDITEERQIRQLEGNILAAMCSSPPFHEMGEIICRNIESVLNESHVSLFALRNGMPIHWASSSHGAEIQNAQSWSATIRQRDGAPAGILQIKTSSGAETSAFIERVADISQHMAALALEQEKSRQHIEQLIQFDPMTGLPNRNNLHNYLDDLVDKAVSPVVYLIGVDHIQDVIDSLGYAWADQALLEVVNRFREKLKPDQYLCRIEGTQFVLVSLENDVSNITQIADELRNVVSKPIMIDDKPFPLTLSIGISYDLGKNRDYLLSTAHNAMDYIRKNGGNGWQFFSPAMNEMVKERLVLGAALKEAISNNQLKLVYQPQIFAETGELYGIEALARWHDPLHGHVPPSRFIPLAEEIGEIENIGRWVIAEACRQLAEWRSQNIHIPALSVNLSALHFRSNQLPNQVSDAMHAWGIDGHQLTVEITESMMMEHDTEIFKRIQILRDMGVGLSVDDFGTGFSGLSRLVSLPVTEIKIDKSFVDRCLTEKRILALLEAITSIGQSLNLTVVAEGVETKEQFEMLRKIHCRVIQGYFFSRPLPAEEIPGWMSSVLPLKI
- protein production: failed

Sequence: MEENTAVAAAERRSGCGLLSVMFGRRGLWSKKSTAVDNGSQKSTSTAATATSNIQFTKSPGTELKKPRDDQKVSAEPIQNNKIQNNQNHNQRSVVPSKPSSNQYPNNHQLGTYENHQRSSYNNNSNSVDPYRGGGGQRKVPREAIGLSGELESMITDHQKAKGTNGLVRASSSNIMLYGNLGNLNQTGPVTAGVNYGNNNGYGVKRTTMGAATATTTKSQDQSGSLCRAISTRMDPETLKIMGNEDYKNGNFAEALALYDAAIAIDPNKAAYRSNKSAALTALGRILDAVFECREAIRIEPHYHRAHHRLGNLYLRLGEVEKSIYHFKHSGPEADREDIAKAKTVQTHLNKCTEAKRLRDWNGLITETTNTISSGADAAPQVYALQAEALLKTHRHQEADDALSRCPVFDIDASTRYYGPVGYAGFLVVRAQVHLASGRFDEAVEAIQRAGKLDGNNREVIMISRRAQAVTEARFKGNELFKSGRFQEACAAYGEGLDHDPRNSVLLCNRAACRSKLGQFDKSIEDCTAALSVRPGYGKARLRRADCNAKIEKWELAVGDYEILKKESPEDEQVIRGLSEAQQQLMKRSGQDS
- protein production: failed

Sequence: MAHHTKETMELIKELVSIPSPSGNTAKIINFIENYVSEWNVETKRNNKGALILTVKGKNDAQHRLLTAHVDTLGAMVKEIKPDGRLSLSMIGGFRWNSVEGEYCEIETSSGKTYTGTILMHQTSVHVYKDAGEAKRDEKNIEVRIDERVFSADEVRELGIEVGDFVSFDPRVQITESGYIKSRHLDDKVSVAILLKLIKRLQDENVTLPYTTHFLISNNEEIGYGGNSNIPEETVEYLAVDMGALGDGQASDEYTVSICAKDSSGPYHYALRKHLVELAKTNHIEYKVDIYPYYGSDASAAIRAGFDVKHALIGAGIDSSHAFERTHESSIAHTEALVYAYVMSNLIEE
- protein production: not failed

Sequence: MIDRNIVNLRLFRIYSKRYLKFDFVAAIVVFLVAIPLCLGIALASGAPLFSGILSGIIGGIVVGIFSGSQVSVSGPAAGMAAVVLAAISQLGDFNTFLLALTIAGLLQMIIGALRAGFVADYVPSNVVQGLLCSIGILLIIKQLPLAFTLSSDFDELKTHLLETTEGFTVSPLLALSQHINEGALIITTLSLAILIYFDITKNKILKEIPAPILVVLAGILLNELFIWTNSSLAQNSPQLVNIPDTNGFFQFFSHLEYPDWSAWTNPKVYLYALVICIVASLETLLNLKASERLDKKRRHSPTNQELVAQGLGNITSGLVGGIPVTSVIVRTSINIHAGSKTKFSAVLHGFFILFAVMLIPGALNKIPLSSLAAILIYTGYKLNKPAIYINIFSQGSDRFIPFIVTVISIIAFNLLAGILIGLAISLFYILKSNSQARIDIIKEIYPNGSTYRLMLPQQMTFLNKAALVAELDTLPRRSQLIIDARHSQYIDKEILDLFNELKEELAGSKQISVNFTGFQEHYKIHNYIDFITVTTYDVQTNLTPAQVLNILLEGNQRFLSDNRIHRSNQIDIKYTAKTQHPIAVVLACIDSRVPVETIFDMSFGDLFCVRIAGNVINDDILASIEYACNVVGAKLIMVLGHTRCGAIQSACDGIEKGHITQLLSKIKPAVNAEKETTTERNGKNQTFVNHVTELNVANTLQNIYKKSDILRTMIDSNEIGMVGAIYDVSSGKVSCKTYTEELSTLDGDENKLLAQKFETILLEAKAS
- protein production: failed

Sequence: MPKLSLIIATFNDAIGLARCLDSIEQQTVRADCEVLVFDNASSDGTVELLQGWSDRLTYWESERDRGIYHAWNKAIARASGDYVAFVGADDYYASPTALQQLLELTVGQPDLVSGRNAYYSPEGKFLRTWGYAWDWQRMRESMILSHPGLLMRRSLFDRIGLFDERFRICGDYDWLLRLPPDLKAVHTNQVILCLSMGGLSNTRISRVFAETFQAQRRQPDLGRWRSGVYWLINWLKFGRRKLIGLA
- protein production: failed

Sequence: MDGYNIFIVLLAVYIAGLVAIGWYFNKKQKSVTDFWLAGRRIGPSALGFSAAASWLTAGGILAVIGYYMLQGMGSIWAFVAPNILALLIIALLVGKIKNLPAITQPELLEQRYGSAVRWPIALIITVVMILFAVADVTGFSLVLQVFYGVDPLYAAAIVAIAVSLYVTMGGLSAVVWTDVVQFAFLSIFTIAMAFAAVGTVADGGLNTPAISSSELFGNVSYDWWNPLSIGIPMVLIFVFAIIPGWITEQDPWQKVWAAKDAKSARLGMVFGSLMITVVFAACAVIAIAFNNIYPDIAGMGFPAGMAQAEPALLAFVSERFVSAPLIVALSAIGLAAASMSCADTFATSGASCISRDIFQRYIKPDATMKEMLVVNRISVLIIVLAATAGSFVIPNIIDAIHIATFIASASYFFPLMGGLYWKRATKEGAFAGMVVGFVVQVTLVSLDLIKTPPMAANYLESVHPALMSHGVIVGMGLSAIAFFGVSLMTKPSSRINLAPFFEEEAEELAHYEAREIDEKDPTYGAFLKNVDEKVAGERAHLQLNLRASGALSWHELVEKLKSSSPAWVTPTGLDSVYRLTHGDMLACVTVTRGSEERDIWLKAEPRLETVGRQKKELFTAYEELKKVLGQKGVNLDFY
- protein production: failed

Sequence: MSSQVIPALPKTFSSSLDLWREKNDQLVRQAKQLTRDSRPSLRRQQSAQDTLEGLRELLLTLQGLPAAVPALPLELTVLCNCIILRASLVQAFTEDLTQDLQRGLERVLEAQHHLEPKSQQGLKELWHSVLSASSLPPELLPALHCLASLQAVFWMSTDHLEDLTLLLQTLNGSQTQSSEDLLLLLKSWSPPAEESPAPLILQDAESLRDVLLTAFACRQGFQELITGSLPHAQSNLHEAASGLCPPSVLVQVYTALGACLRKMGNPQRALLYLTEALKVGTTCALPLLEASRVYRQLGDRAAELESLELLVEALSATHSSETFKSLIEVELLLPQPDPASPLHCGTQSQAKHLLASRCLQTGRAEDAAEHYLDLLAMLLGGSETRFSPPTSSLGPCIPELCLEAAAALIQAGRALDALTVCEELLNRTSSLLPKMSSLWENARKRAKELPCCPVWVSATHLLQGQAWSQLKAQKEALSEFSQCLELLFRTLPEDKEQGSDCEQKCRSDVALKQLRVAALISRGLEWVASGQDTKALSDFLLSVQICPGNRDGSFYLLQTLKRLDRKNEASAFWREAHSQLPLEDAAGSLPLYLETCLSWIHPPNREAFLEEFGTSVLESCVL
- protein production: failed

Sequence: MNLIWFLIIGGLAGWLAGLIMKGKGFGVLANIGIGIVGSFIGGFLFGLLQLSAHGAIGRLVTATVGAVLLLAIVNKIKKG
- protein production: failed

Sequence: MYSMSMGERGEAPDGMSGVIRYESLLAARTMAQRQPKKSAGCADSVESFRNPKPKPRFDKDVFCKTSAIRRLRSDFLHGDGSRGTGRHRAVARGPDGVRLHPAGRQRPNLPVASSASRTRHDQGSGRMSVVSAIIGTAERVPLPDVVIRAAIQRLCSRTATRISALGADDEAAFAGRMMLRPIAEDVDAANAGHDEAPASFIAQALGPNRKYSSCFYTTDATTLREAEEEALRQTVAHAGLADGQTILELGCGWGSLSLWTARQFPHAKVTAVSNSQGQRAYVEEQARLRGLLNLRVVTADMNVFAPEGQFDRIVSVEMFEHVMNWRKLMTRLRSWLAPEGRLFMHIVTHRSGSHLFDRANREDWIAQHVFTGGLMASHHLVRQFDDIFTVEKEWCWSGTHYQRTANDWLANFDAHRDAIEASLRNVHGDETALWMRRWRWFFLATSGLFGYAGGTEWGVSHYRMKAADEGVS
- protein production: failed

Sequence: MKYSTRADIQDYLKQGYQLVSDNFVTGTTFDTDDRTDQIYEVHFKHGIESDFEKRNVKETVHYRYDNGQLARPIYQNVLNFERKVETDQVTKQRNYKNWQAVDGTSFKRVVSPYIKGYTAVPKLIDEITNINENHKNIEKIVVYKANDEKAQVKYFDDTTGRKLSEQFLHGAYGSRDVYRTANTIQHYKQMGYELVSDDYPKNGAKYSQDKLVRVYEIHLKHKIIEQSEKSTVKEVIHYLYDNGHLAKPVYESVLNFSRMVGIDQVTGKKYYGIWQATEGTSFKKVVSPKIEGYTALPKVVVAINNINVNHANIEKIVVYKANDEKARVKYFDDTIGRKLSEQLLHGVYGSRDVYRTANTIQRYKQMGYELVSDNYPKNGANYSQDKLVRVYEIHLKHKIVKQPEKSTVKEVIHYLYDNGQPAGPIYENELDFKRIIEFDQVTKQKRYGNWQAIDGTYFKKVDSPKIIGYTPTLEAIETINNIDGSHKDIEETVVYKINDEKAQVTYYDDTTRKKLSEKGLNGAYRTRDSYRTVDAINQYKWAGYELVSDDYPQNGVFYDQDKLIKMYEVHLKHGEKMDFEQRAVKEVIYYQYDDGQLAEPTYKNKLSFRRIVKIDQVTGQKYYGVWQAVDGTNFRSVVSPIIEGYTPIPEIVRAINNINSYHQDVEKTVVYQANKQNEVVGGNSPKKFKQIKIILVRVIHPNREVRINTEKSHTKK
- protein production: failed

Sequence: GSHMEKVPGEMEIERRERSEELSEAERKAVQAMWARLYANCEDVGVAILVRFFVNFPSAKQYFSQFKHMEDPLEMERSPQLRKHACRVMGALNTVVENLHDPDKVSSVLALVGKAHALKHKVEPVYFKILSGVILEVVAEEFASDFPPETQRAWAKLRGLIYSHVTAAYKEVGWVQQVPNATTPPATLPSSGP
- protein production: not failed

Sequence: MSQQKHADQDYALETVPSESKKGFLPMFAIMLGFTFFSASMWAGGTIGTGLKFQTFLLAVLMGNLLLGLYTGALAYIGSSTGLSTHLLARYSFGEKGSYLASFILAITQVGWFGVGVAMFSLPVHYATGIDLNILLLLSGILMTTTAYFGIKSLTVLSMISVPAITLLGIYSVTGAVNSIGGISELFAIEPANNLGLAVGLSLCIGSFISGGTLTPDFSRFSKSKSIGVISTFIAFFIGNSLMFIFGAVGASTLGQSDISEVMLKQGLIIPAIIILGLNIWTTNDNALYASGLGFSNITKIPKKHVVIFNGLIGTLGALVLYNNFVGWLTLLSSIIPSIGGIIISDYFINKRQKYASLENIKVKKVHWNAVIAWVLGVFASQFLPGISPINAVFGSAIIYIVLETLKKNNI
- protein production: failed

Sequence: SLTSKNQFYKPGMLVPVFSAAGLLKNGRYQFLLQQIETLSLLPTEQYAQLYEALVYRFVEFVQVLPIRLDEPLCSLMNEGLLRGVNSLNHYIQNHPEATPLERYALFSAGLLLEVAHAVVNQKIFITDEEGNFIKQWNPFSGPLIDDVETKHYKIMPLSSYYQRNIPSITPILVRQLLPDEGFLWLTSDMRVFSDWMQALRDDEGEGGGRFEHVLQLFKHKNIDGLFNTLPALPVNLQDSPATAHADAFLNWLKEALATNQIKVNTSDAGVHVIPEGVFLEKTGIFKQYIDLHVNVPVNLFTVYQQFGNLFGLTKLSGIDYRFEQLFSEYPDALKRKSKMGFAGLIGIRRASPTREGVLIADPNLIFTRGEIPSATSYLKLSSAQKSQNIPMT
- protein production: not failed

Sequence: MGQHEPGAALGRMVRAAWSETLGEDHPDTLAAANRLAGCLVGLRKYAEARDLFADLLPRCERALGWEDPLTLTVVSNLGGCLSALGAHEEARRQCEDIVRRSRLALGPDDPRTLRAASNLAVFLRRLDDHQAALAVWEDTLLRYRRVLGEDHPDTLHAKRDLVALLRAMGEHDRAHAVAGEPLEHHHHHH
- protein production: failed
